US9228015B2, “Nogo receptor antagonists and methods of increasing neurite outgrowth” (Biogen Idec MA Inc., priority 2006, dated 2016)

Legend:
[1] = tested on: Nogo-66, MAG and myelin action; test: Blockade of Nogo-66, MAG and myelin action in vitro
[2] = tested on: rats with mid-thoracic dorsal hemisection injury; test: Intrathecal sNogoR310-Fc in rats with mid-thoracic dorsal hemisection: axon tracing and histology; type: in vivo, rat
Description: We isolated spinal cord 4 mm rostral to and 4 mm caudal to the lesion site (8 mm long in total) from transgenic mice and embedded it in a glutaraldehyde-polymerized albumin matrix, and cut parasagittally on a vibratome (30 μm thick). We collected transverse sections (50 μm) from the spinal cord 5-7 mm rostral to and 5-7 mm caudal to the injury site. For sNogoR310-Fc injection experiments in rats, the spinal cord extending from 10 mm rostral to 10 mm caudal from the lesion site was cut parasaggitally (50 μm) on a vibrating microtome. Transverse sections were collected from the spinal cord 11-16 mm rostral to and 11-16 mm caudal to the injury site. We incubated the sections with avidin-biotin-peroxidase complex and visualized the BDA tracer by nickel-enhanced diaminobenzidine HRP reaction (Grandpre, Nature 417:547-551 (2002)). We processed some sections for serotonin immunohistochemistry (anti-5-HT antibody) by indirect immunofluorescence. To visualize the lesion area, we double-stained some sections with antibodies directed against GFAP (Sigma®, St. Louis, Mo.). We mounted, dehydrated and covered the sections with mounting medium.
We fused the ligand binding domain (27-310) of rat Nogo receptor-1 to the rat IgG1 Fc domain to promote stability and purification. We purified protein from stably transfected CHO cells. This protein blocks Nogo-66, MAG and myelin action in vitro, as shown previously for mouse sNogoR310-Myc His (Fournier et al., J Neurosci. 22:8876-8883 (2002); Liu et al., Science 297:1190-1193 (2002)). We delived sNogoR310-Fc protein intrathecally to rats with a mid-thoracic dorsal hemisection injury through an osmotic minipump. During a four-week survival period after injury, 1.2 mg sNogoR310-Fc protein was locally administered in each rat. In rats receiving the vehicle treatment (1.2 mg rat IgG), sections rostral to hemisection display the tightly bundled prominent dorsal CST and very few ectopic BDA-labeled CST fibers above the lesion site. […] Numerous ectopic fibers sprouting from the BDA-labeled CST are observed from transverse and parasagittal sections. In some cases, projections cross from the dCST area near the midline to the circumference of the cord, becoming intermingled with the dorsolateral CST. The sprouting axons extend though gray matter to a greater extent than white matter.
(§1) We deeply anaesthetized female Sprague-Dawley rats (190-250 g) and conducted laminectomies at spinal levels of T6-7, exposing the spinal cord. We cut the dorsal half of the spinal cord with a 30-gauge needle and a pair of microscissors to sever the dorsal parts of CSGT tracts, and assured the depth of the lesion (1.8 mm) by passing the sharp part of a number 11 blade across the dorsal half of the cord (Grandpre et al., Nature 417:547-551 (2002)). An osmotic minipump (Alzet® 2ML4, 2 ml volume, 2.5 μl/h, 28 day delivery), which was filled with 1.2 mg rat IgG in PBS or 1.2 mg sNogoR310-Fc fusion protein in PBS, was sutured to muscles under the skin on the back of the animals. A catheter connected to the outlet of the minipump was inserted into the intrathecal space of the spinal cord at the T7-8 level through a small hole in the dura.
Fourteen days after hemisection, a burr hole was made on each side of the skull overlying the sensorimotor cortex of the lower limbs to trace CST fibers. The anterograde neuronal tracer BDA (10% in PBS, 3.5 μl per cortex) was applied at seven injection sites at a depth of 1.5 mm from dura on each side (Grandpre et al., Nature 417:547-551 (2002)). For rubrospinal tract tracing in rats, the tracer BDA (1 μl; MW 10,000; 10% in PBS) was injected into red nucleus on the left side (5.8 mm posterior to bregma, 0.7 mm lateral, 7.0 mm ventral to the skull surface). Two weeks after BDA injection, these animals were perfused with PBS, followed by 4% paraformaldehyde, and tissue was collected for histology.

[3] = tested on: rats with mid-thoracic dorsal hemisection injury; test: Intrathecal sNogoR310-Fc in rats with dorsal hemisection: behavioral tests; type: in vivo, rat
Description: The Basso-Beattie-Bresnahan (BBB) locomotor rating scale (Basso et al., Neurotrauma 13:343-359 (1996)), the inclined plane test and the inclined grid walking test (Li and Strittmatter, J Neurosci. 23:4219-27 (2003)) were monitored in rats and mice after injury. For the inclined plane test, we measured the maximal angle to which a 50 cm×60 cm board could be angled for 5 sec without the mouse sliding off. For inclined grid walking, the mice were trained to climb a wire grid (35 cm long with 2.54 cm squares) at a slope of 45 degrees. The number of instances in which the hindpaw dropped below the grid plane was scored for each excursion from bottom to top. For the rat behavioral testing, BBB locomotor scale, grid walking and footprint analysis were performed. For grid walking, the rats were trained to walk on a wire grid (70 cm long with 2.54 an squares), and the number of instances in which the hindpaw dropped below the grid plane was counted. For footprint analysis, the walking patterns of rat hindpaws were recorded with ink during a continuous locomotion across a 90 cm runway, and stride length on each side and stride width were calculated (Metz et al., Brain Res. 883:165-177 (2000)). All of these behavioral tests were performed by at least two individuals. Throughout the surgery, behavioral testing and histologic analysis, researchers were blind to the identity of the compound in the minipump.
as §1, with “A catheter connected to the outlet of the minipump was inserted into the intrathecal space of the spinal cord at the T7-8 level through a small hole in the dura.” left out

[4] = tested on: DRG neurons, myelin-mediated inhibition of neurite outgrowth; test: Neurite outgrowth assay, P3-4 rat DRG neurons, myelin mixed with test protein (Example 10); type: cell-based; settings: mixed with CNS myelin, FIGS. 9-11
Experimental: Lab-Tek® culture slides (4 wells) were coated with 0.1 mg/ml poly-D-lysine (Sigma®). CNS myelin alone or mixed with sNogoR310, sNogoR310-Fc fusion protein, mAb 5B10 or control PBS were separately spotted as 3 μl drops. Fluorescent microspheres (Polysciences) were added to the myelin/PBS to allow later identification of the drops (Grandpre et al., Nature 403:439-444 (2000)). Lab-Tek® slides were then rinsed and coated with 10 μg/ml laminin (Gibco™).
Dorsal root ganglions (DRG's) from P3-4 Sprague Dawley rat pups were dissociated with 1 mg/ml collagenase type 1 (Worthington), triturated with fire-polished Pasteur pipettes pre-plated to enrich in neuronal cells and finally plated at 23,000 cells/well on the pre-coated Labtek culture slides. The culture medium was F12 containing 5% heat inactivated donor horse serum, 5% heat inactivated fetal bovine serum and 50 ng/ml mNGF and incubated at 37° C. and 5% CO2 for 6 hours.
Slides were fixed for 20 minutes with 4% paraformaldehyde containing 20% sucrose and stained for the neuronal marker anti beta-III-tubulin (Covance TUJ1) diluted 1:500. As secondary antibody anti-mouse Alexa Fluor® 594 (Molecular Probes) was diluted 1:300 and slides were coverslipped with Gel/Mount™ (Biømeda™). 5× digital images were acquired with OpenLab™ software and analyzed by using the MetaMorph® software for quantification of neurite outgrowth.

[5] = tested on: rats with dorsal hemisection of the spinal cord; test: Rat spinal cord transection assay (Example 12); type: in vivo; settings: intrathecal pump, up to 28 days, FIG. 12
Experimental: Alzet® osmotic pumps were loaded with test solution (sNogoR310-Fc in PBS) made up freshly on the day of use. The loading concentration was calculated to be 5 and 50 μM. Pumps were primed for >40 hours at 37° C. prior to implantation into animals. Female Long Evans rats were given pre-operative analgesia and tranquilizer and anesthetized using isoflurane (3% in O2).
Rats were placed in a stereotaxic frame and the motor cortex exposed for infusion of the tract tracing agent BDA (10,000 MW) bilaterally. Rats then underwent dorsal hemisection of the spinal cord at TS-T6 followed by implantation of the intrathecal catheter and pump system to deliver test compound (n=1 per group).
Rats were allowed to recover and survive up to 28 days after surgery. Behavioral scoring using the BBB system was recorded up to 28 days after induction of injury, just prior to termination of the in-life phase of the study. […]
The Basso-Beattie-Bresnahan (BBB) locomotor rating scale (Basso et al., Neurotrauma 13:343-359 (1996)), the inclined plane test and the inclined grid walking test (Li and Strittmatter, J Neurosci. 23:4219-27 (2003)) were monitored in rats and mice after injury. For the inclined plane test, we measured the maximal angle to which a 50 cm×60 cm board could be angled for 5 sec without the mouse sliding off. […]

B1: sNogoR310-Fc: fusion protein comprising amino acids 26-310 of rat Nogo receptor-1 and a rat Fc fragment (protein)
chain: PCPGACVCYNEPKVTTSRPQQGLQAVPAGIPASSQRIFLHGNRISYVPAASFQSCRNLTILWLHSNALAGIDAAAFTGLTLLEQLDLSDNAQLRVVDPTTFRGLGHLHTLHLDRCGLQELGPGLFRGLAALQYLYLQDNNLQALPDNTFRDLGNLTHLFLHGNRIPSVPEHAFRGLHSLDRLLLHQNHVARVHPHAFRDLGRLMTLYLFANNLSMLPAEVLVPLRSLQYLRLNDNPWVCDCRARPLWAWLQKFRGSSSGVPSNLPQRLAGRDLKRLATSDLEGCA
modifications: left off: a dimerising Fc or GST
notes: fusion protein comprising amino acids 26-310 of rat Nogo receptor-1 and a rat Fc fragment
blocks Nogo-66, MAG and myelin action in vitro [1]: blocks
BDA-labeled axons from sagittal sections ([2]; 1-2 mm caudal to lesion, each rat): approximately 20
number of sprouts ([2]; 1-10 mm caudal): ~50 sprouts/rat
traced axons from sagittal sections ([2]; 7-8 mm distal to lesion, each rat): ~15
serotonin fibers relative to control group ([2]; 11-15 mm below the lesion): twice as numerous
density of serotonergic fibers vs vehicle ([2]; 11-15 mm rostral to lesion): similar
total collateral length of each sprout relative to NEP 1-40-treated animals ([2]; distal spinal cord): twice as great
ectopic sprouting fibers adjacent to the dCST ([2]; rostral to lesion, 1.2 mg intrathecal over four weeks): greater increase
average number of BDA-labeled CST fibers relative to vehicle-treated rats ([2]; transverse sections 11-15 mm caudal to hemisection): approximately 20 fold
BDA-labeled RST fibers ([2]; transverse sections 11-15 mm distal to SCI): many BDA-labeled RST fibers
grid walking errors ([3]; 2-4 weeks post-injury, on average): 4-7 /session
locomotor BBB score ([3]; 2-4 weeks post-trauma): continues to improve
animals with consistent forelimb-hindlimb coordination and parallel paw position ([3]; 4 weeks after injury, 9 treated animals): 9
protection of DRG neurons from myelin-mediated inhibition of neurite outgrowth [4]: protected
functional recovery (BBB score) [5]: promoted functional recovery
